Measurements taken from the DeepSol protein solubility set.

Experiment: soluble on expression in E. coli; label from the status in PepcDB or PDB records

Row | Sequence | soluble on expression in E. coli
1 | AIAQSRKQLPITNAVIHPVVLLGIVDHYNRACKNTRKRAVGILLGTIDRRGHAEVLNSFAVPFEEDERNPTVFFFDHDYVENMAAMFRKVTARERIIGWYSTGPQIRPADMGVHEIVQGFCSSGHALYVICQVDPKETGLPTEAYVSLEEDSVALEGSAPGQPRRIFEHVPNSIGALEAEEVGTEHLLRDVRNWSVSTLTGEVRAKLDALQSLRARLENIRRYLEEVASGNLPLHQEILHALQLVLKGLPRNAASSELTQAFAVCSNEQTLLIYVATLLRSVLVLHDLVNNKTELLETERKMEVAFSNATTAMDAPGSPTVADSL | soluble
2 | AIASEVSCKKRDDYLEWPEYFMAVAFLSAQRSKDPNSQVGACIVNSENKIVGIGYNGMPNGCSDDVLPWRRTAENKLDTKYPYVCHAELNAIMNKNLTDVKGCSMYVALFPCNECAKLIIQAGIKEVIFMSDKYHDSDEATAARLLFNMAGVTFRKFIPKCSKIVIDFDSINSRPSQKLQ | soluble
3 | AIAVHQASPVKNISDTRPKRSPEYWYYYCTYEDNSVKSPLVPGLKVETQAVADRFSADIFSAVERYNQLFSEVQKQSFKYVPEEESDNQSN | soluble
4 | AKTPVREILLFDSDEFLQHNAFRAPGAPTLEALRDAEKKVEYFKSIYSNMHKRISTSSTYIDEENLELLNGVTFAFICIDAGTSKKSIVQKLEELDIPFVDVGM | not soluble
5 | AMAISDPEETLMDSTTATAELGWMVHPPSGWEEVSGYDENMNTIRTYQVCNVFESSQNNWLRTKFIRRRGAHRIHVEMKFSVRDCSSIPSVPGSCKETFNLYYYEADFDLATKTFPNWMENPWVKVDTIAADESISQVDLGGRVMKINTEVRSFGPVSRNGFYLAFQDYGGCMSLIAVRVFYRKCPR | soluble
6 | ANEMTYEQLARELLLVGPAPTNEDLKLRYLDVLIDNGLNPPGPPKRILIVGAGIAGLVAGDLLTRAGHDVTILEANANRVGGRIKTFHAKKGEPSPFADPAQYAEAGAMRLPSFHPLTLALIDKLGLKRRLFFNVDIDPQTGNQDAPVPPVFYKSFKDGKTWTNGAPSPEFKEPDKRNHTWIRTNREQVRRAQYATDPSSINEGFHLTGCETRLTVSDMVNQALEPVRDYYSVKQDDGTRVNKPFKEWLAGWADVVRDFDGYSMGRFLREYAEFSDEAVEAIGTIENMTSRLHLAFFHSFLGRSDIDPRATYWEIEGGSRMLPETLAKDLRDQIVMGQRMVRLEYYDPGRDGHHGELTGPGGPAVAIQTVPEGEPY | soluble
7 | ANFNVPKLGVFPVAAVFDIDNVPEDSSATGSRWLPSIYQGGNYWGGGPQALHAQVSNFDSSNRLPYNPRTENNPAGNCAFAFNPFGQYISNISSAQSVHRRIYGIDLNDEPLFSPNAASITNGGNPTMSQDTGYHNIGPINTAYKAEIFRPVNPLPMSDTAPDPETLEPGQTEPLIKSDGVYSNSGIASFIFDRPVTEPNPNWPPLPPPVIPIIYPTPALGIGAAAAYGFGYQVTVYRWEEIPVEFIADPETCPAQPTTDKVIIRTTDLNPEGSPCAYEAGIILVRQTSNPMNAVAGRLVPYVEDIAVDIFLTGKFFTLNPPLRITNNYFADDEVKENTVTIGNYTTTLSSAYYAVYKTDGYGGATCFIASGGAGISALVQLQDNSVLDVLYYSLPLSLGGSKAAIDEWVANNCGLFPMSGGLDKTTLLEIPRRQLEAINPQDGPGQYDLFILDDSGAYASFSSFIGYPEAAYYVAGAATFMDVENPDEIIFILRNGAGWYACEIGDALKIADDEFDSVDYFAYRGGVMFIGSARYTEGGDPLPIKYRAIIPGLP | soluble
8 | ANSVQQQLEALEKSSGGRLGVALINTADNSQILYRADERFAMCSTSKVMAAAAVLKQSESDKHLLNQRVEIKKSDLVNYNPIAEKHVNGTMTLAELGAAALQYSDNTAMNKLIAHLGGPDKVTAFARSLGDETFRLDRTAPTLNTAIPGDPRDTTTPLAMAQTLKNLTLGKALAETQRAQLVTWLKGNTTGSASIRAGLPKSWVVGDKTGSGDYGTTNDIAVIWPENHAPLVLVTYFTQPEQKAERRRDILAAAAKIVTHGF | soluble
9 | APEAFLNSVLQPFVLPFLQRYPKIQLKLRAADGEIDLFRQGIDVAFKLTDKPDENLVLKEISKTNLVLCASPDYLAQRGMPEHPTQLEQHDCIYLAENDKDNIWSFFKEEAFHSIAVSGRYAVNHSQMRLNGVKAGLGIGIFHDFVVKEALERGEVVEVLSDWMIKSNYHGAVAMQYAQTKYMPARLRVFIGFVNEHLVSKEPTHV | not soluble
10 | APTLISLLEVIEPEVLYSGYDSTLPDTSTRLMSTLNRLGGRQVVSAVKWAKALPGFRNLHLDDQMTLLQYSWMSLMAFSLGWRSYKQSNGNMLCFAPDLVINEERMQLPYMYDQCQQMLKISSEFVRLQVSYDEYLCMKVLLLLSTVPKDGLKSQAVFDEIRMTYIKELGKAIVKREGNSSQNWQRFYQLTKLLDSMHEMVGGLLQFCFYTFVNKSLSVEFPEMLAEIISNQLPKFKAGSVKPLLFHQK | soluble
11 | APWFLEYSKSECHFYNGTQRVRLLVRYFYNLEENLRFDSDVGEFRAVTELGRPDAENWNSQPEFLEQKRAEVDTVCRHNYEIFDNFLVPRRVEPTVTVYPTKTQPLEHHNLLVCSVSDFYPGNIEVRWFRNGKEEKTGIVSTGLVRNGDWTFQTLVMLETVPQSGEVYTCQVEHPSLTDPVTVEW | soluble
12 | AQRVKDRPDGDTRRSELTMKLINKRGAVRERKLISYSIDMGKDKKDKKTIMFFLYPGDVKGTGFLTWDYDQIGKDDDKWLYLPAMKKTRRISGASAKKDYFMGSDFTYDDMGSRNVDEDTHKLLGEETFDGHKCWKLESTSKDQRDVFSKKIAWIRQDCLIPVRVEYYDRMNRLHRLLELSDIAQVDGFWMAQKMNMSNVQTGHRTVLEIKKPEFNRPIDESKFTVTSLEK | not soluble
13 | ARDTLFVNLTDATDSQSLKLSDFGNTVRYVPLETNEVCLIGNNPHIALLEDKIVIATKDQCFLFHKQTGKYICSIGHIGDDPSGYSSTNYWIDDAGLFYFFRAPDQLLKYNQKGEMTGKIQIPHIPAAPDFFAFSDSTIIAHCNSSIGLESSNSLLFLNSFGEKLDSIPNLLKSPSIPSPDNISSLSIIKRGAGFFGNLGRRGVMIIKDKEQGELLLPLYNPSLWSSENEVRFRETFTDTIYTIKNRKLYPYMVFHTDTDHSSANPLWYSNPQSIYVAYVLENTHSVFFQYVKNKQVYNGLYNKETQQTKFAKCQQFIVDDLTSEQELKVDLSALCSYKGEYGFILEAASIPDASQKQSDNKNENIPHWMSQLDEDANPVIAIVSDK | soluble
14 | ASVLTVKDIARKKPAAVFKKSEHDGPGSAMQILMDHDRDYGIVVDKSSRYSGIVSLDSLRLAHKENRSLASAQLEDDVTLQPDQSVNDILGVVASVPYAVPVVDEQGTYFGVVTKSRLLQTLDKD | soluble
15 | ATDKRLLGNTAIIGQSGSGKTVLLGFLLAQAQKFKPTTVVFDKDRGMEIAIRAMGGRYLTFKPGRQSGFNPFQLPPTQDNLTFLKQFVKKLAEASSEITHRDEEEINQAVMSIMSSNINPSLRRLSFLLQFLPNPHLNDYNSHPSVHTRLIKWCEGGDYGWLFDNPTDALDLSTHQIYGFDITEFLDNPETRTPVMMYLLYRTEGMISGQRFMYIFDEFWKPLQDPYFEDLAKNKQKTIRKQNGIFVFATQEPTDALESNIAKTLIQQCATYIFLA | not soluble
16 | ATRMAPVIMVPGSSASQNRFDSLITELGKETPKKHSVLKLTVQTDGTIKYSGSIAANDNEPFIVIGFANNRDGKANIDKQAVWLNTAFKALVKTYHFNHFYALGHSNGGLIWTLFLERYLKESPKVHIDRLMTIASPYNMESTSTTAKTSMFKELYRYRTGLPESLTVYSIAGTENYTSDGTVPYNSVNYGKYIFQDQVKHFTEITVTGANTAHSDLPQNKQIVSLIRQYLLAETMPDKVRQKNAQRVQN | soluble
17 | AVAQQLRAESDFEQLPDDVAISANIADIEEKRGFTSHFVFVIEVKTKGGSKYLIYRRYRQFHALQSKLEERFGPDSKSSALACTLPTLPAKVYVGVKQEIAEMRIPALNAYMKSLLSLPVWVLMDEDVRIFFYQSPYDSEQVP | soluble
18 | AVFNYALMPSLQQFNKILAHELNLVLDEDGPLKSDAPLRRQLLERLGVTVHSINSEKAVEFNHAMSIDLMSEEMTQELGSPTEVRLLLGSESYILWMHIEKLPNSIIRIPLSELQEEDFAPLFR | not soluble
19 | AVTIPPARHAEPQRWIARLPGFKISENKAQALWELAGKNIEGLQTDKALPTDWQAWRSEPQNAALLENLKTFFAQMPSEDEAAQGSDGIN | not soluble
20 | AWQVNTAYTAGQLVTYNGKTYKCLQPHTSLAGWEPSNVPALWQLQ | soluble
21 | CGVGFIAAIDGKPRRSVVEKGIEALKAVWHRGAVDADGKTGDGAGIHVAVPQKFFKDHVKVIGHRAPDNKLAVGQVFLPRISLDAQEACRCIVETEILAFGYYIYGWRQVPINVDIIGEKANATRPEIEQIIVGNNKGVSDEQFELDLYIIRRRIEKAVKGEQINDFYICSLSARSIIYKGMFLAEQLTTFYPDLLDERFESDFAIYHQRYSTNTFPTWPLAQPFRMLAHNGEINTVKGNVNWMKAHETRMEHPAFGTHMQDLKPVIGVGLSDSGSLDTVFEVMVRAGRTAPMVKMMLVPQALTSSQTTPDNHKALIQYCNSVMEPWDGPAALAMTDGRWVVGGMDRNGLRPMRYTITTDGLIIGGSETGMVKIDETQVIEKGRLGPGEMIAVDLQSGKLYRDRELKDHLATLKPWDKWVQNTTHLDELVKTASLKGEPSDMDKAELRRRQQAFGLTMEDMELILHPMVEDGKEAIGSMGDDSPIAVLSDKYRGLHHFFRQNFSQVTNPPIDSLRERRVMSLKTRLGNLGNILDEDETQTRLLQLESPVLTTAEFRAMRDYMGDTAAEIDATFPVDGGPEALRDALRRIRQETEDAVRGGATHVILTDEAMGPARAAIPAILATGAVHTHLIRSNLRTFTSLNVRTAEGLDTHYFAVLIGVGATTVNAYLAQEAIAERHRRGLFGSMPLEKGMANYKKAIDDGLLKIMSKMGISVISSYRGGGNFEAIGLSRALVAEHFPAMVSRISGIGLNGIQKKVLEQHATAYNEEVVALPVGGFYRFRKSGDRHGWEGGVIHTLQQAVTNDSYTTFKKYSEQVNKRPPMQLRDLLELRSTKAPVPVDEVESITAIRKRFITPGMSMGALSPEAHGTLNVAMNRIGAKSDSGEGGEDPARFRPDKNGDNWNSAIKQVASGRFGVTAEYLNQCRELEIKVAQGAKPGEGGQLPGFKVTEMIARLRHSTPGVMLISPPPHHDIYSIEDLAQLIYDLKQINPDAKVTVKLVSRSGIGTIAAGVAKANADIILISGNSGGTGASPQTSIKFAGLPWEMGLSEVHQVLTLNRLRHRVRLRTDGGLKTGRDIVIAAMLGAEEFGIGTASLIAMGCIMVRQCHSNTCPVGVCVQDDKLRQKFVGTPEKVVNLFTFLAEEVREILAGLGFRSLNEVIGRTDLLHQVSRGAEHLDDLDLNPRLAQVDPGENARYCTLQGRNEVPDTLDARIVADARPLFEEGEKMQLAYNARNTQRAIGTRLSSMVTRKFGMFGLQPGHITIRLRGTAGQSLGAFAVQGIKLEVMGDANDYVGKGLSGGTIVVRPTTSSPLETNKNTIIGNTVLYGATAGKLFAAGQAGERFAVRNSGATVVVEGCGSNGCEYMTGGTAVILGRVGDNFAAGMTGGMAYVYDLDDSLPLYINDESVIFQRIEVGHYESQLKHLIEEHVTETQSRFAAEILNDWAREVTKFWQVVPKEMLNRLEVPVHLPKAISAE | soluble
22 | CHAINAAGKKVLIVYAHQEPKSFNGSLKNVAVDELSRQGCTVTVSDLYAMNFEPRATDKDITGTLSNPEVFNYGVETHEAYKQRSLASDITDEQKKVREADLVIFQFPLYWFSVPAILKGWMDRVLCQGFAFDIPGFYDSGLLQGKLALLSVTTGGTAEMYTKTGVNGDSRYFLWPLQHGTLHFCGFKVLAPQISFAPEIASEEERKGMVAAWSQRLQTIWKEEPIPCTAHWHFGQ | soluble
